Two molecules from US7098013B2, “Polypeptide having α-isomaltosyl-transferase activity” (Kabushiki Kaisha Hayashibara Seibutsu Kagaku Kenkyujo, priority 2000, dated 2006) can be followed below.

Data set [1] in a line: Optimum pH of the enzyme activity. To be noted: MacIlvaine buffer, 35° C., 30 min. The data set is classed as biochemical. The procedure:
(§1) The activity of α-isomaltosyl-transferring enzyme was measured by the following assay: A substrate solution was prepared by dissolving panose in 100 mM acetate buffer (pH 6.0) to give a concentration of 2% (w/v). A reaction mixture was prepared by mixing 0.5 ml of the substrate solution and 0.5 ml of an enzyme solution, and incubated at 35° C. for 30 min. After stopping the reaction by boiling for 10 min, the amount of glucose formed in the reaction mixture was determined by the glucose oxidase-peroxidase method. One unit of α-isomaltosyl-transferring activity was defined as the amount of the enzyme that forms one μmole of glucose per minute under the above conditions.
A purified specimen of polypeptide having α-isomaltosyl-transferring activity, obtained by the method in Experiment 3-2, was acted on the substrate in MacIlvaine buffer of various pHs at 35° C. for 30 min according to the assay method of α-isomaltosyl-transferring enzyme disclosed in Experiment 1-1.

Data set [2] can be described thus: Optimum temperature of the enzyme activity. The data set is classed as biochemical. To be noted: incubated for 30 min, pH 6.0. As for the experimental part:
as §1
A purified specimen of polypeptide having α-isomaltosyl-transferring activity, obtained by the method in Experiment 3-2, was acted on the substrate in 20 mM acetate buffer (pH6.0) at various temperatures for 30 min, according to the assay method of α-isomaltosyl-transferring enzyme disclosed in Experiment 1-1.

Data set [3] in a line: Thermal stability of the polypeptide. In kind it is physicochemical. Particulars: 20 mM acetate buffer (pH 6.0), 60 min. As for the experimental part:
A purified specimen of polypeptide having α-isomaltosyl-transferring activity, obtained by the method in Experiment 3-2, was incubated in 20 mM acetate buffer (pH6.0) at various temperatures for 60 min according to the assay method of α-isomaltosyl-transferring enzyme disclosed in Experiment 1-1.

B1: polypeptide having α-isomaltosyl-transferring enzyme activity from Bacillus globisporus N75: purified α-isomaltosyl-transferring enzyme from Bacillus globisporus N75 (FERM BP-7591), contains the … (protein, listed as Bacillus globisporus)
chain: IDGVYHAPYGIDDLYEIQATERSPRDPVAGETVYIKITTWPIEPGQTAWVTWTKNGVAQPAVGAAYKYNSGNNTYWEANLGSFAKGDVISYTVRGNKDGANEKTAGPFTFTVTDWEYVSSIGSVTNNTNRVLLNAVPNTGTLSPKINISFTADDVFRVQLSPTGSGTLSTGLSNFTVTDSASTAWISTSKLKLKVDKNPFKLSVYKPDGTTLIARQYDSTANRNLAWLTNGSTVINKIEDHFYSPASEEFFGFGERYNNFRKRGTDVDTYVYNQYKNQNDRTYMAIPFMLNSSGYGIFVNSTYYSKFRLATERSDMYSFTADTGGSANSTLDYYFIYGNDLKGVVSNYANITGKPAALPKWAFGLWMSANEWDRQSKVATAINNANTNNIPATAVVLEQWSDENTFYMFNDAQYTAKPGGSTHSYTDYIFPAAGRWPNPKQMADNVHSNGMKLVLWQVPIQKWTAAPHLQKDNDESYMIAQNYAVGNGSGGQYRIPSGQWFENSLLLDFTNPSAKNWWMSKRAYLFDGVGIDGFKTDGGEMVWGRWNTFANGKKGDEMRNQYPNDYVKAYNEYARSKKSDAVSFSRSGTQGAQANQIFWSGDQESTFGAFQQAVQAGLTAGLSGVPYWSWDLAGFTGAYPSAELYKRATAMSAFAPIMQFHSEANGSSGINEERSPWNAQARTGDNTIISHFAKYTNTRMNLLPYIYSEAKAASDTGVPMMRAMALEYPSDTQTYGLTQQYMFGGSLLVAPVLNQGETNKNIYLPQGDWIDFWFGAQRPGGRTISYYAGVDDLPVFVKSGSILPMNLNGQYQVGGTIGNSLTAYNNLTFRIYPLGTTTYSWNDDIGGSVKTITSTEQYGLNKETVTLPAINSAKTLQVFTTKPSSVTLGGTALTAHSTLSALIGASSGWYYDTVQKLAYVKLGASSSAQTVVLDGVNKVEYEAEFGTLTGVTTNTNHAGYMGTGFVDGFDAAGDAVTFDVSVKAAGTYALKVRYASAGGNASRAIYVNNAKVTDLALPATANWDTWGTATVNVALNAGYNSIKVSYDNTNTLGINLDNIAIVEH
Regarding B1, the “optimum pH” value in data set [1] is “about 6.0”. Besides, the optimum temperature entry in data set [2] is “about 50 °C”. The thermal stability entry in data set [3] is “up to 45 °C”.

B2: polypeptide having α-isomaltosyl-transferring enzyme activity from Bacillus globisporus C11: purified α-isomaltosyl-transferring enzyme from Bacillus globisporus C11 (FERM BP-7144), contains the … (protein, listed as Bacillus globisporus)
chain: IDGVYHAPYGIDDLYEIQATERSPRDPVAGDTVYIKITTWPIESGQTAWVTWTKNGVNQAAVGAAFKYNSGNNTYWEANLGTFAKGDVISYTVHGNKDGANEKVIGPFTFTVTGWESVSSISSITDNTNRVVLNAVPNTGTLKPKINLSFTADDVLRVQVSPTGTGTLSSGLSNYTVSDTASTTWLTTSKLKVKVDKNPFKLSVYKPDGTTLIARQYDSTTNRNIAWLTNGSTIIDKVEDHFYSPASEEFFGFGEHYNNFRKRGNDVDTYVFNQYKNQNDRTYMAIPFMLNSSGYGIFVNSTYYSKFRLATERTDMFSFTADTGGSAASMLDYYFIYGNDLKNVVSNYANITGKPTALPKWAFGLWMSANEWDRQTKVNTAINNANSNNIPATAVVLEQWSDENTFYIFNDATYTPKTGSAAHAYTDFTFPTSGRWTDPKAMADNVHNNGMKLVLWQVPIQKWTSTPYTQKDNDEAYMTAQNYAVGNGSGGQYRIPSGQWFENSLLLDFTNTAAKNWWMSKRAYLFDGVGIDGFKTDGGEMVWGRSNTFSNGKKGNEMRNQYPNEYVKAYNEYARSKKADAVSFSRSGTQGAQANQIFWSGDQESTFGAFQQAVNAGLTASMSGVPYWSWDMAGFTGTYPTAELYKRATEMAAFAPVMQFHSESNGSSGINEERSPWNAQARTGDNTIISHFAKYTNTRMNLLPYIYSEAKMASDTGVPMMRAMALEYPKDTNTYGLTQQYMFGGNLLIAPVMNQGETNKSIYLPQGDWIDFWFGAQRPGGRTISYTAGIDDLPVFVKFGSILPMNLNAQYQVGGTIGNSLTSYTNLAFRIYPLGTTTYDWNDDIGGSVKTITSTEQYGLNKETVTVPAINSTKTLQVFTTKPSSVTVGGSVMTEYSTLTALTGASTGWYYDTVQKFTYVKLGSSASAQSVVLNGVNKVEYEAEFGVQSGVSTNTNHAGYTGTGFVDGFETLGDNVAFDVSVKAAGTYTMKVRYSSGAGNGSRAIYVNNTKVTDLALPQTTSWDTWGTATFSVSLSTGLNTVKVSYDGTSSLGINFDNIAIVEQ
Take B2: the optimum temperature entry in data set [2] was “about 50 °C”. Moreover, the thermal stability entry in data set [3] was “up to 40 °C”.
